{"source": "patent US20140228540A1", "about": "“POLYPEPTIDES THAT BIND TISSUE INHIBITOR OF METALLOPROTEINASE TYPE THREE (TIMP-3), COMPOSITIONS AND METHODS” (Amgen Inc., priority 2009, published 2014)", "molecules": {"B1": {"name": "Cluster II: LRP-1 peptide, amino acids 854-1184 of LRP-1; contains 8 ligand binding domains (protein)", "chain": "CQPGEFACANSRCIQERWKCDGDNDCLDNSDEAPALCHQHTCPSDRFKCENNRCIPNRWLCDGDNDCGNSEDESNATCSARTCPPNQFSCASGRCIPISWTCDLDDDCGDRSDESASCAYPTCFPLTQFTCNNGRCININWRCDNDNDCGDNSDEAGCSHSCSSTQFKCNSGRCIPEHWTCDGDNDCGDYSDETHANCTNQATRPPGGCHTDEFQCRLDGLCIPLRWRCDGDTDCMDSSDEKSCEGVTHVCDPSVKFGCKDSARCISKAWVCDGDNDCEDNSDEENCESLACRPPSHPCANNTSVCLPPDKLCDGNDDCGDGSDEGELCDQ"}}, "key": {"HTB-94 cells": {"system": "HTB-94 cells", "experiment": "Accumulation of TIMP-3 in the medium of cultured HTB-94 cells", "assay_type": "cell-based", "description": "This example describes an assay to evaluate the accumulation of TIMP-3 in the medium of cultured cells. HTB-94™ cells (a chondrocytic cell line available from the American Type Culture Collection, Manassas, Va.) are plated to 24-well tissue culture plates at 1×10̂5 cells per well in 1 ml growth medium (RPM11640, 10% FBS, 1% PSG), and incubated at 37 C, 5% CO2 overnight. The cells are then washed once with PBS, and the wells are replenished with 250 microL serum-free medium (RPM11640, 1% PSG; designated SF in the tables below) to which is added the polypeptide being tested or a control (for example medium containing heparin, 1 mg/ml). Proteins to be tested are diluted to appropriate concentrations, for example as shown in the Tables below, and added to the cells. Cells are then incubated at 37 C, 5% CO2 for two additional days, day 2 conditioned medium (CM) samples are collected and clarified by centrifugation (i.e., for 5 minutes at 10K RPM) and the supernatant fluid is collected and stored at −20 C until assayed. Analysis is done on 100 microL CM samples, either by Western blot or by using a standard human TIMP-3 ELISA as per the manufacturer's protocol (R&D Systems Inc., Minneapolis, Minn.)."}, "[1]": {"target": "T1, inhibition of MMP-13 by TIMP-3 (Homo sapiens, UniProt P35625)", "T1 construct": "purchased Calbiochem/EMD (active MMP-13)", "T1 sequence (P35625 24-211)": "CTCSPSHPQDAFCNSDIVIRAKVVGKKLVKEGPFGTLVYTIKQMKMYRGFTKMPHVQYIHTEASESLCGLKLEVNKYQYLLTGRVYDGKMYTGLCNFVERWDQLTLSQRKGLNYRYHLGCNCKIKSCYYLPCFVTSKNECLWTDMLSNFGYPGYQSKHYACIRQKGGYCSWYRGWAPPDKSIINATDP", "experiment": "MMP-13 inhibition assay: effect of test molecules on inhibition of MMP-13 by TIMP-3", "assay_type": "biochemical", "protocol": "Briefly, test molecules are titrated in assay buffer and added to black polystyrene 96 or 384 well assay plate (Griener Bio-One, Germany). The concentrations of the test molecules are dependant on the activity of the molecule; for example, titrations may begin at 1000, 2000 or 3000 nM and use five-fold dilutions for titration, although other types of titrations may be used or a single concentration may be tested. […] Active MMP-13 (Calbiochem/EMD,) is diluted in assay buffer to give a final assay concentration of 1.46 nM added to the test molecule titration/TIMP-3 mixture and incubated for 10 minutes at room temperature in a final volume of 50 microL. Alternatively, pro-MMP-13 (R & D Systems, Minneapolis, Minn.) is activated with aminophenyl mercuric acetate (APMA; Calbiochem/EMD,) for 2 hours at 37 degrees C., and used in the assay.\nA fluorogenic substrate such as Mca-PLGL-Dpa-AR-NH2 Fluorogenic MMP Substrate or Mca-KPLGL-Dpa-AR-NH2 Fluorogenic Peptide Substrate (R & D Systems) is prepared to a final assay concentration of 20 microM in assay buffer, and added to the MMP-13 enzyme/huTIMP-3/test molecule solution. MMP-13 activity is measured kinetically for 20 minutes using Molecular Devices fluorescent plate reader. The effect of the molecules being tested is expressed as percent of expected maximum TIMP-3 inhibition of MMP-13 enzymatic activity."}, "TIMP-3": {"system": "TIMP-3", "experiment": "Binding ELISA of LRP-1 peptides to TIMP-3 (Table 2; format and species not specified)", "parameters": "species or system human or mouse"}}}
{"molecule": "B1", "values": [{"measurement": "TIMP-3 (ng/ml) in conditioned medium", "setting": "HTB-94 cells; Table 5, polypeptide 0.5 microM, listed as C II (prep 1)", "value": 1.99, "unit": "ng/mL"}, {"measurement": "TIMP-3 (ng/ml) in conditioned medium", "setting": "HTB-94 cells; Table 5, polypeptide 0.5 microM, listed as C II (prep 2)", "value": 1.35, "unit": "ng/mL"}, {"measurement": "TIMP-3 (ng/ml) in conditioned medium", "setting": "HTB-94 cells; Table 5, polypeptide 1 microM, listed as C II (prep 1)", "value": 2.23, "unit": "ng/mL"}, {"measurement": "TIMP-3 (ng/ml) in conditioned medium", "setting": "HTB-94 cells; Table 5, polypeptide 1 microM, listed as C II (prep 2)", "value": 1.71, "unit": "ng/mL"}, {"measurement": "TIMP-3 (ng/ml) in conditioned medium", "setting": "HTB-94 cells; Table 5, polypeptide 2 microM, listed as C II (prep 1)", "value": 5.18, "unit": "ng/mL"}, {"measurement": "TIMP-3 (ng/ml) in conditioned medium", "setting": "HTB-94 cells; Table 5, polypeptide 2 microM, listed as C II (prep 2)", "value": 1.92, "unit": "ng/mL"}, {"measurement": "TIMP-3 (ng/ml) in conditioned medium", "setting": "HTB-94 cells; Table 6, peptides 2 microM", "value": 8.49, "unit": "ng/mL"}, {"measurement": "TIMP-3 (ng/ml) in conditioned medium", "setting": "HTB-94 cells; Table 7, peptides 2 microM", "value": 13.42, "unit": "ng/mL"}, {"measurement": "TIMP-3 (ng/ml) in conditioned medium", "setting": "HTB-94 cells; Table 8, polypeptide 0.5 microM", "value": 1.59, "unit": "ng/mL"}, {"measurement": "TIMP-3 (ng/ml) in conditioned medium", "setting": "HTB-94 cells; Table 8, polypeptide 1 microM", "value": 1.94, "unit": "ng/mL"}, {"measurement": "TIMP-3 (ng/ml) in conditioned medium", "setting": "HTB-94 cells; Table 8, polypeptide 2 microM", "value": 2.76, "unit": "ng/mL"}, {"measurement": "Accumulation of TIMP-3 in conditioned medium by Western blot", "setting": "HTB-94 cells; Western blot", "value": "enhanced accumulation of TIMP-3"}, {"measurement": "Effect on TIMP-3's inhibition of MMP-13 (in words)", "setting": "[1]", "value": "minimal effect"}, {"measurement": "Binding to TIMP-3 (affinity, in words)", "setting": "TIMP-3", "value": "submicromolar affinity"}]}
